The values below come from patent US20170260258A1.

Assay [1] concerns the target humanized antibody HzKR127-3.1.
The target in assay [2] is humanized antibody HzKR127-3.
Assay [3] deals with KR127 antibody (murine monoclonal antibody).
Assay [4] concerns the target humanized antibody HzKR127-3.2.

Chain of GST-pre-S1 (1st to 56th amino acids) protein (P08515 whole entry): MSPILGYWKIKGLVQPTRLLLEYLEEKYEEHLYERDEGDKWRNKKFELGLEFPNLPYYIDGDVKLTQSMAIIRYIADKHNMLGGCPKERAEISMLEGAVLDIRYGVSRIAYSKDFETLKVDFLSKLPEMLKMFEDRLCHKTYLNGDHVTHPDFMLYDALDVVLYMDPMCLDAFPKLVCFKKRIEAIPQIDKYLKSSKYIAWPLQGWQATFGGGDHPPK
Chain of KR127 antibody (murine monoclonal antibody) (VH, as listed by the source, chain 1 of 2): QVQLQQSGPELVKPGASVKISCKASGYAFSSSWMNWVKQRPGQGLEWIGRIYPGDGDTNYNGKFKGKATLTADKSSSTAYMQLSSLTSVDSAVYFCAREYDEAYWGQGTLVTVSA
Chain of KR127 antibody (murine monoclonal antibody) (VL, as listed by the source, chain 2 of 2): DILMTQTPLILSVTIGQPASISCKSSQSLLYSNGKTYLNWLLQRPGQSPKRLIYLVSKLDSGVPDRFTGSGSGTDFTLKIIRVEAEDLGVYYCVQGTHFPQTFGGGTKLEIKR
Chain of humanized antibody HzKR127-3.2 (VH, as listed by the source, chain 1 of 2): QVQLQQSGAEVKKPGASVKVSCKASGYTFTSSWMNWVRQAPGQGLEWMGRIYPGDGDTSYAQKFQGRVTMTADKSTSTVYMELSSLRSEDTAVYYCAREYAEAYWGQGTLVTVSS
Chain of humanized antibody HzKR127-3.2 (VL, as listed by the source, chain 2 of 2): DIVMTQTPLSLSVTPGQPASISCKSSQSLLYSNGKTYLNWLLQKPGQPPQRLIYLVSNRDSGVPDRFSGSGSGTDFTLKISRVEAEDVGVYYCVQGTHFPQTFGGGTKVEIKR
Chain of humanized antibody HzKR127-3.1 (VH, as listed by the source, chain 1 of 2): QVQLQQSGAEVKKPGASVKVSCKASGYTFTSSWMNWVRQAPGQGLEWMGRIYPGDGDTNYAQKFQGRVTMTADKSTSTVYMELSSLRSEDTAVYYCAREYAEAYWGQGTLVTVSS
Chain of humanized antibody HzKR127-3 (VH, as listed by the source limits assumed, chain 1 of 2): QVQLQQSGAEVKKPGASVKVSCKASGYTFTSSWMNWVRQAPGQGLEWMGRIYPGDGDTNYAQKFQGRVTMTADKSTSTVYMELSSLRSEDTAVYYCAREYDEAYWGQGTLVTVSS
Chain of humanized antibody HzKR127-3 (VL, as listed by the source limits assumed, chain 2 of 2): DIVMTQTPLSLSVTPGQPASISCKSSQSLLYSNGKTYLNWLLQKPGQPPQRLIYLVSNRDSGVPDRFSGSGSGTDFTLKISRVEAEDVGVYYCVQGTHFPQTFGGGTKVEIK

With “GST-pre-S1 (1st to 56th amino acids) protein (from UniProt P08515 1-218)”, the IC50 (read off the curve) is 6 nM in assay [1], 30 nM in assay [2], 20 nM in assay [3] and 2 nM in assay [4].
